# Laboratory results taken from patent US20250032605A1.
# How the values were obtained:
# [1] = biological target: SARS-2^hg monomer (hyperglycosylated SARS-2 RBD) (SARS-CoV-2 (engineered)) (UniProt P0DTC2); experiment: BLI, Fab on FAB2G sensor, hyperglycosylated construct as analyte
# [2] = biological target: SARS-2^hg monomer (hyperglycosylated SARS-2 RBD) (SARS-CoV-2 (engineered)) (UniProt P0DTC2)
# [3] = biological target: rsYNLF-34C (v2 resurfaced YNLF_34C RBD carrying SARS-2 residues 401-507) (bat sarbecovirus YNLF_34C; SARS-CoV-2)
substance,measurement,setting,value
B38 Fab,fold decrease in affinity for B38,[1],2 fold
same,Kd,[2],2.1 µM
same,Kd,[3],1.4 µM
